The values that follow come from patent US20100159468A1.

This test has as its target Arf1-V5 (human) (UniProt P84077). The test can be described thus: cell-based or functional assay.

Arf1-V5 (human), sequence (P84077 2-181): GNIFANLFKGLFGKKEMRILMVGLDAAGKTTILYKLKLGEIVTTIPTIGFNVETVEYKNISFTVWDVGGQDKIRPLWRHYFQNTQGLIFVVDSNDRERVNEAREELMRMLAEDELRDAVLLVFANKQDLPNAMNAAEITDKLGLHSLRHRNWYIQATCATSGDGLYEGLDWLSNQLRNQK

On to “GBF1-M832L-HA (hamster GBF1 with M830L, M832L relative to human GBF1, HA-tagged) (from UniProt Q9R1D7 1-1856)”, for which the Arf1-GTP level (GST-GGA3 pulldown, Western blot band intensity) in BFA-treated Vero cells expressing GBF1-M832L is 45 % of control and the Arf1-GTP level (GST-GGA3 pulldown, Western blot band intensity) in GCA-treated Vero cells expressing GBF1-M832L was 86 % of control.
